Measurements from patent publication US20160024176A1.

Target: V158 high affinity variant of CD16a (FcγRIIIa) (UniProt P08637)
Assay: HTRF competition with IgG-d2 on HEK293 cells expressing terbium-labelled FcγRIIIa V158

EC50: 220 nM
Substance: human IgG1 monoclonal antibody
